Source: patent US20110065123A1

Molecular target: Rac1 (non-glucosylated) of mouse intestinal epithelial CT26 cells (mouse) (UniProt P63001)
Assay: cell-based or functional assay

Row | Substance | glucosylation of Rac1 in CT26 cells, 5 h (Western blot with anti-Rac1 clone 102): complete [ng/mL]
1 | full-length recombinant Clostridium difficile toxin B (rTcdB), His-tagged, expressed in Bacillus megaterium (from UniProt P18177 2-2366) (enzyme) | 0.4 to 2
2 | full-length recombinant Clostridium difficile toxin A (rTcdA), His-tagged, expressed in Bacillus megaterium (from UniProt P16154 1-2710) (enzyme) | 40
3 | native TcdA (nTcdA) purified from culture supernatant of C. difficile strain VPI 10463 (from UniProt P16154 1-2710) (enzyme) | 40
4 | native TcdB (nTcdB) purified from C. difficile strain VPI 10463 (from UniProt P18177 2-2366) (enzyme) | 0.4 to 2
